Experiment: yeast display, Sf9 membrane polyspecificity reagent, FACS + sequencing; frameworks hold sequencing errors
How it was run: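 Genes from sorted yeast were amplified by colony PCR, read by MiSeq 2 × 250 sequencing and filtered on CDR length. These cells carried a synthetic nanobody library in Saccharomyces cerevisiae BJ5465 and were sorted by FACS into low and high (top ~1%) gates on anti-HA and streptavidin fluorescence. Polyreactivity is labelled according to the gate of origin.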

Row | Sequence | polyreactivity (PSR sort gate)
1 | QVQLVESGGGLVQAGGSLRLSCAASGSTFRYNAMGWYRQAPGKERELVAAISKGGGRTYYADSVKGRFTISRDNAKNTVYLQMNSLKPEDTAVYYCAATYGTGRRSKYGYWGQGTQVTVSS | high polyreactivity
2 | QVQLVESGGGLVQAGGSLRLSCAASGSTFRYNAMGWYRQAPGKERELVAAISSGSSTNYADSVKGRFSISRDNAKNTVYLQMNSLKPEDTAVYYCAAQPGYYDDFYYWGQGTQVTVSS | low polyreactivity
3 | QVQLVESGGGLVQAGGSLRLSCAASGSTFRYNAMGWYRQAPGKERELVAAISSSGGSTRYADSVKGRFTISRDNANNTVYLQMNSLKPEDTAVYYCAVRFYDWRYYYWGQGTQVTVSS | high polyreactivity
4 | QVQLVESGGGLVQAGGSLRLSCAASGSTFRYNAMGWYRQAPGKERELVATITSGGYTNYADSVKGRFTISRDNAKNSVYLQMNSLKPVDSAVYYCATDSLFRTYVEWDRKFDYWGQGTQVTVSS | high polyreactivity
5 | QVQLVESGGGLVQAGGSLRLSCAASGSTFRYNAMGWYRQAPGKEREMVATITWSGGSTYYADSVKGRFTISRDNAKNTVYLQMNSLKPEDTAVYYCAKLPFPVYYGGSYKYYYWGLGTQVTVSS | high polyreactivity
6 | QVQLVESGGGLVQAGGSLRLSCAASGSTFRYNAMGWYRQAPGTERELVAAINWSGSSTYYADSVKGRFTISRDNAKKTVYLQMNSLKPEDTAVYYCAAERPWYTKWGEYWGQGTQVTVSS | high polyreactivity
7 | QVQLVESGGGLVQAGGSLRLSCAASGSTFRYYAMGWYRQAPGKERDLVAAINRSGGSTYYADSVKGRFTISRDIAKNTVYLQMNSLKPEDTAVYYCGAPWGRHYTNPDDYWGQGTQVTVSS | high polyreactivity
8 | QVQLVESGGGLVQAGGSLRLSCAASGSTFRYYAMGWYRQAPGKERELVAAINYSGGRTYYADSVKGRFTISRDNAKNTVYLQMNCVKPEDSAVYYCAADWSYLAVTDSTSDYDPNYGYWGQGTQVNVSS | high polyreactivity
9 | QVQLVESGGGLVQAGGSLRLSCAASGSTFRYYAMGWYRQAPGKERELVAAISSAGTTYYADSVKGRFTISRDNAKNTVYLQMNSLKPEDTAVYYCTARFVYHSSFAGFDYWGQGTQVTVSS | low polyreactivity
10 | QVQLVESGGGLVQAGGSLRLSCAASGSTFRYYAMGWYRQAPGKERELVAAISYRGVRTNYADSVKGRFTISRDHAKNTVYLQMNSLKPEDTAVYYCADRFGRSSSGSPYDRYGYWGQGTQVTVSS | high polyreactivity
11 | QVQLVESGGGLVQAGGSLRLSCAASGSTFRYYAMGWYRQAPGKERELVAAITRSGSTYYADSVKGRFTISRDNAKNTVYLQMNSLKREDTAVYYCNADQYYGGRYVYLRHYNYWGQGTQVTVSS | high polyreactivity
12 | QVQLVESGGGLVQAGGSLRLSCAASGSTFRYYAMGWYRQAPGKERELVAGITSAGNTYYADSVKGRFTISRDNAKNTVYLQMNSLKPEDTAVYYCAARRWKGYYYWGQGTQVTVSS | high polyreactivity
13 | QVQLVESGGGLVQAGGSLRLSCAASGSTFRYYAMGWYRQAPGKERELVAVISTSGNTYYADSVKGRFSISRDNAKITVYVQMNSLQPEETAVYYCAARGVGGQISQEYDYWGQGTQVTVSS | low polyreactivity
14 | QVQLVESGGGLVQAGGSLRLSCAASGSTFRYYDMGWYRQAPGKERELVAVISKSGARTYYADSVKGRFTISRDNAKNTVYLQMNSLKPEDTAVYYCIAVFKLDSQYAMGYWGQGTQLTVSS | high polyreactivity
15 | QVQLVESGGGLVQAGGSLRLSCAASGSTFRYYSMGWYRQAPGKERELVASISSGGSTNYADSVKGRFTISRDNAKNTVYLQMNSLKPGDTAVYYCNADSWTVNRRYYYYRYEYWGQGTQVTVSS | low polyreactivity
16 | QVQLVESGGGLVQAGGSLRLSCAASGSTFRYYVMGWYRQAPGKERELVAAISSSGGSTYYADSVKGRFTISRDNAKNTVYLQMNSLKPEDTAVYYCARDKGYVSYRYNYWGQGTQVTVSS | high polyreactivity
17 | QVQLVESGGGLVQAGGSLRLSCAASGSTFRYYVMGWYRQEPGKEREFVAAISAGGGRTYYADSVKGRFTISRDNSKNTVYLQMNSLKPEDTAVYYCAATKGNILRRSRYDYWGQGTQVTVSS | high polyreactivity
18 | QVQLVESGGGLVQAGGSLRLSCAASGSTFSAYTMGWYRQAPGKERELVARITNGGSTYYADSVKGRFTISRDNAKNTVYLQMNSLKPEDTAVYYCAAQLGWWGSGYWGQGTQVTVSS | high polyreactivity
19 | QVQLVESGGGLVQAGGSLRLSCAASGSTFSAYTMGWYRQAPGKERELVARITNGGSTYYADSVKGRFTISRDNAKNTVYLQMNSLKPEDTAVYYCNVQYYVSYWRSYDYWGQGTQVTVSS | high polyreactivity
20 | QVQLVESGGGLVQAGGSLRLSCAASGSTFSCYAMGWYRQAPGKERELVAAISSSGGTSTYADSVKARFTISRDNAKKTVYLQMNSLKPEDTAVYYCAARQYRRLRDYRHDYWGQGTQVTVSS | high polyreactivity
21 | QVQLVESGGGLVQAGGSLRLSCAASGSTFSDNAMGWYRQAPGKDRELVAAINYSDGSTNYADSVKGRFTISRDNAKNTVYLQMNSLKPEDTAVYYCAVDIYFWCYGWWGPYDYWGQGTQVTVSS | low polyreactivity
22 | QVQLVESGGGLVQAGGSLRLSCAASGSTFSDNAMGWYRQAPGKERELVAAISVTGGRTYYADSVKGRFTISRDNAKNTVYLQMNSLKPEDTAVYYCAKVTILDPYSYDYWGQGTQVTVSS | low polyreactivity

Row | Sequence | polyreactivity (PSR sort gate)
23 | QVQLVESGGGLVQAGGSLRLSCAASGSTFSDNVMGWYRQAPGKERELVAGITRSGGRTYYADSVKGRFTISRDNAKNTVDLQMNSLKPEDTEVYYCAARRSGSKSGLFDYWGQGTQVTVSS | low polyreactivity
24 | QVQLVESGGGLVQAGGSLRLSCAASGSTFSDYAMGWYRQAPGKERELVAGITETGTTTYYADSVKGRFTISRDNAKNTVYLQMNSLKPEDTAVYYCAAYVVTYYYGTGYYSYDYWGQGTQVNVSS | low polyreactivity
25 | QVQLVESGGGLVQAGGSLRLSCAASGSTFSEYAMGCYRQAPGKERELVAAITWDGGSTYYPDSVKGRFTISRDNAKNTVYLQMNSLKPEDTAVYYCATDGWSYSYGYWGQGTQVTVSS | low polyreactivity
26 | QVQLVESGGGLVQAGGSLRLSCAASGSTFSFNAMGWYRQAPGKERELVAAISRSGGRTYYADSVKGRFTISRDNAKNTVYLQMNSLKPEDTAVYYCNKVWFQRSVQPVEYDYWGQGTQVTVSS | high polyreactivity
27 | QVQLVESGGGLVQAGGSLRLSCAASGSTFSFNAMGWYRQAPGKERELVAAISYSDSTTYYADSVKGRFTISRDNAKNTVYLQMNSLKPEDTAVYYCAAETGPYYRFGGDYWGQGTQVTVSS | high polyreactivity
28 | QVQLVESGGGLVQAGGSLRLSCAASGSTFSGNALGWYRQPPGKERELVAAITSSGGSTDYADSVKGRFTISRDNAKNSVYLQMNSLKPEDTAVYYCNTVFHYFNSGAYNFGYWGQGTQVTVSS | high polyreactivity
29 | QVQLVESGGGLVQAGGSLRLSCAASGSTFSGNAMGWYRQAPGKERELVAAITRSGSRTYYADSVKGRFTISRDNAKNTVYLQMNSLKPEDTAVYYCAKVGRTGDDYYYWGQGTQVTVAS | high polyreactivity
30 | QVQLVESGGGLVQAGGSLRLSCAASGSTFSGYAMGWYRQAPGKERELVAAINWNGGRTYYADSVKGRFTISRDNAKNTVYLQMYSLKPADTAVSYCNKQSPRGRSAVYKYDYWGQGTQVTVSS | high polyreactivity
31 | QVQLVESGGGLVQAGGSLRLSCAASGSTFSGYDMGWYRQAPGKERELVAAISKSGGRTYYADSVKGRFTISRDNAKNTVYLQMKSLKPEDTAVYYCNTDSPYDTYYFLWWREDYYWGQGTQVTVSS | low polyreactivity
32 | QVQLVESGGGLVQAGGSLRLSCAASGSTFSGYMGWYRQAPGKERELVAAITSSGGSTYYADSVKGRFTISRDNAKNTVYLQMYSLKPEDTAVYYCAADGGYRGEDYWGQGTQVTVSS | high polyreactivity
33 | QVQLVESGGGLVQAGGSLRLSCAASGSTFSHNAMGWYRQAPGKERELVAAISWSGVGTYADSVKGRFTISRDNAKNTVYLQMNSLKPEDTAVYYCNKVSYPSTSSSWFDYWGQGTQVTVSS | low polyreactivity
34 | QVQLVESGGGLVQAGGSLRLSCAASGSTFSIYAMGGDRQAPGKERELVAAITRRSGSTYYADSVKGRFTISRDNAKNTVSLQMNSLKPEDTAVYYCAADTWRTDYTSSYYKNRDSWGQGTQVTVSS | high polyreactivity
35 | QVQLVESGGGLVQAGGSLRLSCAASGSTFSIYTMGWYRQAPGKERELVAAITRGGSTYYADSVKGRFTISRDNAKNTVYLQMNSLKPEDTAVYYCAADYVSYYRGGRYIELDYWGQGTQVTVSS | low polyreactivity
36 | QVQLVESGGGLVQAGGSLRLSCAASGSTFSKYTMGWYRQAPGKERELVAAISRSGGRTYYADSVKGRFTISRDNAKNTVYLQMNSLKPEDTAVYYCATVVYVFGYSSPMYYWGQGTQVTVSS | high polyreactivity
37 | QVQLVESGGGLVQAGGSLRLSCAASGSTFSLNAMGWYRQAPGKERELVAAISGSGGSTYYADSVKGRFTISRDNAKHTVYLQMNSLKPEDTAVYYCNKYYYPLRKSFGYWGQGTQVTVSS | high polyreactivity
38 | QVQLVESGGGLVQAGGSLRLSCAASGSTFSLYAMGWYRQAPGKERELVAAISSSGGSTYYADYVKGRFTISRDNAKNTVYLQMNSLKPEDTAVYYCAAYRVGSYDYWGQGTQVTVSS | high polyreactivity
39 | QVQLVESGGGLVQAGGSLRLSCAASGSTFSLYAMGWYRQAPGKERELVAAITYSGTSTYYADSVKGRFTISRDNAKNTVYLQMNSLKPEDTAVYYCNVESWGGHDFTWAVTSGGYWGQGTQVTVSS | low polyreactivity
40 | QVQLVESGGGLVQAGGSLRLSCAASGSTFSLYAMGWYRQAPGKERELVASITWGGGSTYADSVKGRFTISRDNAKNTVYLQMNSLKPEDTAVYYCARKYRYRVLYDFAYDHWGQGTQVTVSS | low polyreactivity
41 | QVQLVESGGGLVQAGGSLRLSCAASGSTFSNVMGWYRQAPGKEREFVARISKSGGSTYYADSVKGRFTISRDNAKNSVYLQMNSLKPEDTAVYYCATGRFRRTEYGGRYDYWGQGTKVTVSS | high polyreactivity
42 | QVQLVESGGGLVQAGGSLRLSCAASGSTFSNYALGWYRPAPGKERELVAAITGRGGRTYYADSVKGRFTISRDNAKNTVYLQMNSLKPEDTAVYYCNADYWSRMDYWGQGTQVTVSS | high polyreactivity
43 | QVQLVESGGGLVQAGGSLRLSCAASGSTFSNYAMGWYRQAPGKERELVAAISRRGTSTYYADSVKGRFTISRDNAKNTVYLQMNSLKPEDTAVYYCAADYFRYTYDYWGQGTQVTVSS | high polyreactivity

Reference: the nanobody polyreactivity screen of Harvey et al. (2022)
